Numbering of substitutions follows the chain as printed. Names and notes keep the numbering of the source. One block for each binder: values may come before it.
Experiments:
human SIRPβ isoform 1 = biological target: T1, human SIRPβ isoform 1 (human, UniProt O00241 30-148); test: SPR, antibody on GLC chip
T1 construct: also called Beta; Human SIRPb
Summary of the method: (§1)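 On a ProteOn XPR36 biosensor, Protein A-purified antibodies were amine-coupled to a GLC chip at about ~1000 RU after dilution to 80 nM in 10 mM sodium acetate pH 4.5. SIRP analytes at 100, 33, 11, 3.7, 1.2 and 0 nM were then injected one-shot in PBS pH 7.4 containing 0.01% Tween-20 at 25° C, with 90 s of association at 100 μL/min and 1200 s of dissociation. The dissociation constant (KD) was calculated as kd/ka from a global Langmuir fit of double-referenced data.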

BALBc mouse SIRP-α = biological target: T2, BALBc mouse SIRP-α (mouse (BALB/c strain)); test: SPR, antibody on GLC chip
T2 chain: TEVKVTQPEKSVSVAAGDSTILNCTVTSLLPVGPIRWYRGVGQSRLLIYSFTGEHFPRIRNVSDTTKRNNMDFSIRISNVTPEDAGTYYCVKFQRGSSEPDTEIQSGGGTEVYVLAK
Summary of the method: as §1

BL6 mouse SIRP-α = biological target: T3, BL6 mouse SIRP-α (mouse (C57BL/6 strain), UniProt P97797 32-148); test: SPR, antibody on GLC chip
T3 construct: also called C57BL/6
T3 sequence: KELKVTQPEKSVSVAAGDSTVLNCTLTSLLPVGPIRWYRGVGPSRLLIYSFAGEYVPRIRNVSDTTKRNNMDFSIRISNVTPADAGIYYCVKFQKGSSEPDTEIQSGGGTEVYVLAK
Summary of the method: as §1

human SIRP-α v2 [1] = biological target: T4, human SIRP-α v2 (human); test: SPR, antibody on GLC chip
T4 construct: also called Human v2; Human V2
T4 sequence (chain, as listed by the source limits assumed): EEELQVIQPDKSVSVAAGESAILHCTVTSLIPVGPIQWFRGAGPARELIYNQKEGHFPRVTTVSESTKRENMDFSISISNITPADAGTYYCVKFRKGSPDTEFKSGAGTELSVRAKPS
Summary of the method: as §1

human SIRP-α v1 [2] = biological target: T5, human SIRP-α v1 (human, UniProt P78324 31-149); test: SPR, antibody on GLC chip
T5 construct: also called Human v1; Human V1
T5 sequence (P78324 31-149 limits assumed): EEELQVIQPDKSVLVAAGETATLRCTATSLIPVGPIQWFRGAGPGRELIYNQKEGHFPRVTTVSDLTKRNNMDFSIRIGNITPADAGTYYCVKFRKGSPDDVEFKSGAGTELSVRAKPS
Summary of the method: as §1

NOD mouse SIRP-α = biological target: T6, NOD mouse SIRP-α (mouse (NOD strain)); test: SPR, antibody on GLC chip
T6 chain: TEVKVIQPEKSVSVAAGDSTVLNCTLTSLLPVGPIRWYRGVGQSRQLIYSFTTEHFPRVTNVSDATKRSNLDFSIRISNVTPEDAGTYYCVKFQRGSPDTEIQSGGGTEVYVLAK
Summary of the method: as §1

human SIRPγ isoform 1 = biological target: T7, human SIRPγ isoform 1 (human, UniProt Q9P1W8 29-147); test: SPR, antibody on GLC chip
T7 construct: also called Gamma; Human SIRPg
T7 sequence (Q9P1W8 29-147 limits assumed): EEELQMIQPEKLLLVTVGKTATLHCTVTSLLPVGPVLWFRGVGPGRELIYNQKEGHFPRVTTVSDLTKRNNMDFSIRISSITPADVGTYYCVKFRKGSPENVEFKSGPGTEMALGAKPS
Summary of the method: as §1

[3] = biological target: T8, human SIRP-α v1 D1 domain (human, UniProt P78324 31-149); test: SPR, antibody immobilised on GLC chip
T8 construct: also called human v1; human α v1
T8 sequence (P78324 31-149 limits assumed): as the sequence (P78324 31-149 limits assumed) above
Method: (§2) All experiments were performed at 25° C. using a SPR-based ProteOn XPR36 biosensor (BioRad, Inc, Hercules, Calif.) equipped with GLC or NLC sensor chips. […] Purification was carried out by standard Protein A affinity column chromatography and eluted antibodies were stored in PBS buffer.
(§3) For the method using GLC chip, the analytes were injected and flowed over anti-SIRPα antibodies immobilized (˜1000 RUs) on GLC chips using Proteon™ Amine Coupling Kit. For the immobilization step, GLC chip was activated with EDAC/Sulpho-NHS 1:1 (Biorad) diluted 1/100 for 300 s at 25 μL/min. Anti-SIRPα antibodies were diluted to 80 nM concentration in 10 mM sodium acetate buffer pH 4.5 and immobilized to the chip at 30 μL/min for 50 s. Chip was inactivated with ethanolamine for 300 s at 25 μL/min. The analytes (e.g., SIRP-α from different species, SIRP-β, SIRP-γ) were injected in a “one-shot” kinetic mode at nominal concentrations of 100, 33, 11, 3.7, 1.2 and 0 nM. Association times were monitored for 90 s at 100 μL/min, and dissociation times were monitored for 1200 s. The surfaces were regenerated with a 2:1 v/v blend of Pierce IgG elution buffer/4M NaCl.

[4] = biological target: T9, cynomolgus SIRP-α D1 domain (SEQ ID NO:11) (cynomolgus, UniProt Q5TFQ8 30-148 (human entry), limits assumed); test: SPR, antibody immobilised on GLC chip
T9 construct: also called cyno1
T9 chain: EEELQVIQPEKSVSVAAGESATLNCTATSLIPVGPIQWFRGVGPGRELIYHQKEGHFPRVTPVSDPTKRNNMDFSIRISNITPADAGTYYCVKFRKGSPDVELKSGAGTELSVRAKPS
Method: as §2, §3

[5] = biological target: T10, human SIRP-α v2 D1 domain (human); test: SPR, antibody immobilised on GLC chip
T10 construct: also called human v2; human α v2
T10 sequence (chain, as listed by the source limits assumed): as the sequence (chain, as listed by the source limits assumed) above
Method: as §2, §3

cynomolgus SIRP-α = biological target: T11, cynomolgus SIRP-α (cynomolgus monkey, UniProt Q5TFQ8 30-148 (human entry), limits assumed); test: SPR, antibody on GLC chip
T11 construct: also called cyno1
T11 chain: T9 chain
Summary of the method: as §1

mouse 129 SIRP-α = biological target: T12, mouse 129 SIRP-α (mouse (129 strain), UniProt P97797 32-150); test: SPR Koff +/-
T12 construct: also called m129
T12 chain: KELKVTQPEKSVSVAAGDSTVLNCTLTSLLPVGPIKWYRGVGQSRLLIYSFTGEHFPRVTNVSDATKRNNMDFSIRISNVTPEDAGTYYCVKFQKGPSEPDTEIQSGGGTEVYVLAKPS
Summary of the method: (§4)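 Apparent association and dissociation rate constants, and KD as kd/ka, were obtained by global fitting of double-referenced data to a simple Langmuir model. Measurements used a ProteOn XPR36 biosensor at 25° C in PBS pH 7.4 with 0.01% Tween-20, with SIRP analytes injected in one-shot kinetic mode at nominal concentrations from A280 absorbance. The purified antibodies were either amine-coupled to a GLC chip or held on an NLC chip by biotinylated Protein A.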

human SIRP-α v2 [6] = biological target: T4, human SIRP-α v2; test: SPR
Summary of the method: as §4

human SIRP-α v1 [7] = biological target: T5, human SIRP-α v1; test: SPR
Summary of the method: as §4

T1 sequence (O00241 30-148 limits assumed): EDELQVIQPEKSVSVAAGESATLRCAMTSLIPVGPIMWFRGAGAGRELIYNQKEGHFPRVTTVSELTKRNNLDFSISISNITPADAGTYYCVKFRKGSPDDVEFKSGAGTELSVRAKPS

Kd (human SIRPβ isoform 1): 3.54 nM | Kd (BALBc mouse SIRP-α): 0.416 nM | Kd (BL6 mouse SIRP-α): 23.1 nM | Kd (human SIRP-α v2 [1]): 1.74 nM | Kd (human SIRP-α v1 [2]): 0.558 nM | Kd (NOD mouse SIRP-α): 0.678 nM | Kd (human SIRPγ isoform 1): 16.5 nM
B1: antibody 136 variant, light chain wt / heavy chain Mut (antibody, V domains shown)
VH: EVQLVESGGGVVQPGRSLRLSCAASGFTFSSYDVNWVRQAPGKGLEWVSLISGSGEIIYYADSVKGRFTISRDNSKNTLYLQMNSLRAEDTAVYYCAKENNRYRFFDDWGQGTLVTVSS
VL: ETVLTQSPGTLTLSPGERATLTCRASQSVYTYLAWYQEKPGQAPRLLIYGASSRATGIPDRFSGSGSGTEFTLTISSLQSEDFAVYYCQQYYDRPPLTFGGGTKVEIK

Kd (human SIRPβ isoform 1): 3.16 nM | Kd (BALBc mouse SIRP-α): 0.422 nM | Kd (BL6 mouse SIRP-α): 15.3 nM | Kd (human SIRP-α v2 [1]): 1.86 nM | Kd (human SIRP-α v1 [2]): 0.717 nM | Kd (NOD mouse SIRP-α): 0.68 nM | Kd (human SIRPγ isoform 1): 40 nM
B2: antibody 136 variant, light chain Mut_I2T / heavy chain Mut (antibody, V domains shown)
VH: B1 VH
VL: B1 VL with T12S, T22S, E38Q

Kd [3]: 0.254 nM | Kd [4]: 0.155 nM | Kd [5]: 0.0694 nM
B3: antibody 119 variant wt/mut (VL wt / VH mut) (antibody, human IgG1, V domains shown)
VH: EVQLLESGGGVVQPGGSLRLSCAASGFSFSNFAVTWVRQAPGKGLEWVSTIGSGDTYYADSVKGRFTISRDNSKNTLYLQMNSLRAEDTAVYYCAKDSTVSWSGDFFDYWGQGTLVTVSS
VL: EIVLTQSPATLSVSPGERATFSCRASQNVKNDLAWYQQRPGQAPRLLIYAARIRETGIPERFSGSGSGTEFTLTITSLQSEDFAVYYCQQYYDWPPFTFGGGTKVEIK
notes: Human IgG1 with L234A/L235A/G237A/N297A; Labels are in the order VL/VH

Kd (human SIRPβ isoform 1): 0.16 nM | binding result (BALBc mouse SIRP-α): no binding | binding result (BL6 mouse SIRP-α): no binding | Kd (human SIRP-α v2 [1]): 0.0161 nM | Kd (cynomolgus SIRP-α): 0.0794 nM | Kd (human SIRP-α v1 [2]): 0.15 nM | binding result (NOD mouse SIRP-α): no binding | Kd (human SIRPγ isoform 1): 0.533 nM
B4: antibody 135 variant, light chain wt / heavy chain Mut_V34M (antibody, V domains shown)
VH: B3 VH with L5V, N31I, F32Y, V34M, T35S, S53A, G54D, S101G
VL: EIVLTQSPATLSVSPGERVTFSCRASQNVRSDIAWYQQKPGQAPRLLIYAASSRDTGIPDRFSGSGSGTDFTLTISSLQSEDFGVYYCQQYYDWPPFTFGGGTKVEIK

Kd [3]: 0.15 nM | Kd [4]: 0.0794 nM | Kd [5]: 0.0161 nM
B5: antibody 135 variant wt/mut V34M (antibody, human IgG1, V domains shown)
VH: B3 VH with L5V, N31I, F32Y, V34M, T35S, S53A, G54D, S101G
VL: B4 VL
notes: as for B3

binding result (mouse 129 SIRP-α): no binding | Kd (human SIRPβ isoform 1): 0.342 nM | binding result (BALBc mouse SIRP-α): no binding | binding result (BL6 mouse SIRP-α): no binding | Kd (human SIRP-α v2 [1]): 0.0682 nM | Kd (cynomolgus SIRP-α): 0.112 nM | Kd (human SIRP-α v1 [2]): 0.183 nM | Kd (human SIRPγ isoform 1): 0.267 nM | Kd (human SIRP-α v2 [6]): 0.0799 nM | Kd (human SIRP-α v1 [7]): 0.183 nM
B6: antibody 119 (antibody, V domains shown)
VH: B3 VH with E1D, V34M, K43E, Q112L
VL: B3 VL
notes: also called AB119; S119

Kd (human SIRPβ isoform 1): 0.46 nM | binding result (BALBc mouse SIRP-α): no binding | binding result (BL6 mouse SIRP-α): no binding | Kd (human SIRP-α v2 [1]): 0.0875 nM | Kd (cynomolgus SIRP-α): 0.195 nM | Kd (human SIRP-α v1 [2]): 0.317 nM | binding result (NOD mouse SIRP-α): no binding | Kd (human SIRPγ isoform 1): 0.336 nM
B7: antibody 119 variant, light chain Mut / heavy chain Mut (antibody, V domains shown)
VH: B3 VH
VL: B3 VL with F21L, R39K, E60A, T76S

Kd (human SIRPβ isoform 1): 0.337 nM | binding result (BALBc mouse SIRP-α): no binding | binding result (BL6 mouse SIRP-α): no binding | Kd (human SIRP-α v2 [1]): 0.0688 nM | Kd (cynomolgus SIRP-α): 0.118 nM | Kd (human SIRP-α v1 [2]): 0.215 nM | binding result (NOD mouse SIRP-α): no binding | Kd (human SIRPγ isoform 1): 0.263 nM
B8: antibody 119 variant, light chain Mut / heavy chain Mut_V34M (antibody, V domains shown)
VH: B3 VH with V34M
VL: B3 VL with F21L, R39K, E60A, T76S
